# B1: Os.TDO: TDO from Oryza sativa (HIS1), SEQ ID NO:2, polynucleotide codon optimized for dicot expression (protein, listed as Oryza sativa)
# chain: MADESWRAPAIVQELAAAGVEEPPSRYLLREKDRSDVKLVAAELPEPLPVVDLSRLDGAEEATKLRVALQNWGFFLLTNHGVEASLMDSVMNLSREFFNQPIERKQKFSNLIDGKNFQIQGYGTDRVVTQDQILDWSDRLHLRVEPKEEQDLAFWPDHPESFRDVLNKYASGTKRIRDDIIQAMAKLLELDEDYFLDRLNEAPAFARFNYYPPCPRPDLVFGIRPHSDGTLLTILLVDKDVSGLQVQRDGKWSNVEATPHTLLINLGDTMEVMCNGIFRSPVHRVVTNAEKERISLAMLYSVNDEKDIEPAAGLLDENRPARYRKVSVEEFRAGIFGKFSRGERYIDSLRI
# Assays:
# [1] = Specific activity of purified TDO proteins, second hydroxylation of mesotrione; type: biochemical; conditions: purified His6-tagged protein from E. coli, FIG. 8
# From the text: Activity was expressed as nmol/min/mg protein and was the mean of three separate assays on the same enzyme sample (technical reps).
# To test the hypothesis, the four amino acids of sorghum TDO corresponding to amino acid positions 230, 301, 332, and 335 in rice TDO were replaced with those of rice TDO. The corn, rice, sorghum, and the modified sorghum TDO genes were cloned into a pET28 vector for E. coli expression with His6 tag in the N-terminus. Subsequently, the proteins were expressed and purified by affinity chromatography. BL21-CodonPlus (DE3)-RIPL E. coli cells (Stratagene) were used for expression. Cells transformed with expression vector were grown in autoinduction media (AIM) supplemented with 100 μg mL-1 kanamycin and 34 μg mL-1 chloramphenicol.
# TDO proteins used in this study were expressed in AIM cells using an auto-induction system as described by Studier (2014). Briefly, the recombinant cultures were grown at 37° C. for 3 hours and then 20° C. for one or two days. Cells were harvested by centrifugation and frozen at −80° C. The pellet was resuspended in lysis buffer (Bper and Yper [Pierce] with ratio 3 to 1, 25 mM Tris-HCl, 300 mM NaCl, 10 mM imidazole, pH 8.0). 150 mM ferric ammonium citrate (1000X) was added to the lysate to a final concentration of 150 µM and incubated on ice for 20 minutes. The lysate was centrifuged to clarify the supernatant. Clear supernatant was loaded onto a 5 mL Ni column connected to AKTA Express (GE Healthcare). […] Protein concentrations were determined spectrophotometrically based on their calculated molar absorption extinction coefficients at 280 nm.
# TDO activity was measured by the second hydroxylation of mesotrione. For routine activity measurements of TDO and determining the kinetic properties of the second hydroxylation, the continuous change in A330, which is specific to the second hydroxylation and subsequent non-enzymatic water removal (i.e. the conversion of hydroxy-mesotrione to oxy-mesotrione), was monitored. […] The reaction proceeded until the maximum A330 was obtained (usually 20-120 minutes depending upon the concentration of mesotrione) and the linear portion of the curve was determined by visual inspection. […]
# For the activity calculation, aliquots of the reaction were removed at various time points during the reaction and heated at 95° C. to halt the reaction. The reaction mixtures were analyzed by HPLC and mass spectrophotometry. By product conversation followed by peak integration on HPLC, a linear plot was obtained and the extinction co-efficient delta between the substrate (mesotrione) and the second product (oxy-mesotrione) was obtained according to the equation ΔA330=(εp-εs)*bΔp where ΔA330 is the change of absorbance at 330 nm and b is the light path.
# [2] = test system: transgenic soybean plants; assay: Mesotrione injury of R0 transgenic soybean plants expressing TDO homologs; type: in vivo; conditions: promoter Constitutive 2, 3' UTR B; 210 g a.i./ha mesotrione at V3-V4, rated 7-14 days after treatment; mean of all tested events
# Procedure: Plant expression vectors comprising the selected TDO homologs under the control of one of two constitutive promoters were transformed into soybean via an Agrobacterium tumefaciens-mediated method. Following Agrobacterium transformation, R0 transgenic soybean plants containing a single copy of the transgene were identified through molecular characterization and segregation analysis. Transgenic and wild-type (control) plants were grown in 6-inch pots filled with BM7 soilless mix in a growth chamber under the conditions of 28° C./23° C. (light/dark) and a 16 hr light/8 hr dark photoperiod. Plants were fertilized with 15-5-15 liquid fertilizer at the V3-V4 growth stage and treated with 210 g a.i./ha mesotrione (1X=105 g a.i./ha; Callisto®, Syngenta in 1% crop oil). Plants were visually rated 7-14 days after treatment on a scale of 0% to 100%, with 0%=no injury and 100%=plant death, relative to the wild-type controls. The results summarized in Table 2 represent the mean of all tested events (10-15) for each construct.
# [3] = test system: transgenic cotton plants; assay: Mesotrione treatment of cotton plants expressing TDO variants, crop injury; type: in vivo; conditions: Under 80° F., R2 cotton sprayed at V3
# Procedure: Cotton is a crop of interest that is often exposed to high temperature growing conditions and thus, selected TDO variants were tested in cotton. Three TDO variants, D08, TDO_6, and TDO_8 were transformed into cotton (along with the Os.TDO control) using similar expression elements in single-cassette vectors or as part of multi-cassette vectors. R2 transgenic cotton plants were then screened for tolerance to mesotrione. Sixteen plants from two events each per construct were sprayed with two rates (2X and 8X) of mesotrione at V3 stage under normal (80° F.) and hot (100° F.) growing conditions. In addition, the effect of heat treatment on TDO accumulation in cotton plants were measured by ELISA. Cotton plants were planted and grown under normal greenhouse conditions (80° F. day/70° F. night) until V3 growth stage. Half of the plants were then moved to a higher temperature growth chamber (100° F. day/82° F. night) for the heat treatment, whereas the remaining half of the plants stayed in the same greenhouse (80° F. day/70° F. night). At day 3 after the plants were placed under different temperature conditions, leaf samples were collected for TDO protein measurement. The plants in 100° F. growth chamber and in 80° F. greenhouse were both sprayed with 2X mesotrione (210 g a.i./ha). Leaf samples were collected again 7 days after mesotrione treatment (DAT: Days After Treatment) for protein assay. Table 5 compares protein levels of the TDO variants in transgenic cotton plants grown under the two tested conditions. The protein levels for the TDO variants were measured at three time points for plants: 1) just before entering the high temperature treatment, 2) three days following placement into control (normal growth temperature) or high temperature (100° F.), and 3) 7 days after a 2X mesotrione spray.
molecule,measurement,setting,value
B1,specific activity of the second hydroxylation,[1],highest activity
same,% Injury,[2],12%
same,"Crop Injury (%), 210 g/ha (2X) Mesotrione",[3],0%
same,"Crop Injury (%), 840 g/ha (8X) Mesotrione",[3],0%

# Source: patent US20250134019A1, “TRIKETONE DIOXYGENASE VARIANTS FOR HERBICIDE TOLERANCE” (Monsanto Technology LLC, priority 2022, published 2025)
